Results from patent US20260193366A1 (APOGEE THERAPEUTICS, published 2026).
Numbering of substitutions follows the chain as printed.

T1: hIL-4Rα on cells (human, UniProt P24394 26-825)
T1 sequence: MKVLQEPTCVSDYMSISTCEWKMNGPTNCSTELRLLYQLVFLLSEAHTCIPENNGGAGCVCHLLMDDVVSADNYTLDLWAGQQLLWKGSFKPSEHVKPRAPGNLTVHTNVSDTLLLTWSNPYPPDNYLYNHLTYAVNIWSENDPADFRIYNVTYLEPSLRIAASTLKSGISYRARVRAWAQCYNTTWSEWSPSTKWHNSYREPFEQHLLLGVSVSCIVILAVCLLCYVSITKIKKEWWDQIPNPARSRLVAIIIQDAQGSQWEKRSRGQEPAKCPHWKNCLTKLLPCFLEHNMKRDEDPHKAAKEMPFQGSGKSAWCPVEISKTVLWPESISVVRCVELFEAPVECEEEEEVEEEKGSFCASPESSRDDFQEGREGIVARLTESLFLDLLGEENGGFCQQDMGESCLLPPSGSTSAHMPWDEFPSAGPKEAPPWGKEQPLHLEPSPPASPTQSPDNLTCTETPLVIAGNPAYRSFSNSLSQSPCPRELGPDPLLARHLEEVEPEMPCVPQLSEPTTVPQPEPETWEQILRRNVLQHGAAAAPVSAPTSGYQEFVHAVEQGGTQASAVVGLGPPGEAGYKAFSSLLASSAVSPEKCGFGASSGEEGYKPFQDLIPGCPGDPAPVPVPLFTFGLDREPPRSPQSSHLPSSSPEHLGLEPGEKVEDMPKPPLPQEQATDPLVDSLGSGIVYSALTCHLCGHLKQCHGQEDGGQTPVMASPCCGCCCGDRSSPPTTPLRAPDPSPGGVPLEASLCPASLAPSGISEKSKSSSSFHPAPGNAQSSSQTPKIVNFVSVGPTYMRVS

T2: human IL-4Rα (human, UniProt P24394 26-232)
T2 construct: also called Hu IL-4Rα; hIL-4Rα
T2 sequence: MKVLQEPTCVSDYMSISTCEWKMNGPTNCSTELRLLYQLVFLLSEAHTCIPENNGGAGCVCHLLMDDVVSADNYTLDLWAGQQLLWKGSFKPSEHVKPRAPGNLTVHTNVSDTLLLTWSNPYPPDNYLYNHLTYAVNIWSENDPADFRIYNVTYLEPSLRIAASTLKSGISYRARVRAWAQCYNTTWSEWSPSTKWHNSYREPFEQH

T3: cynomolgus monkey IL-4Rα (cynomolgus monkey, UniProt P24394 26-231 (human entry), limits assumed)
T3 construct: also called Cyno IL-4Rα; cyIL-4Rα
T3 chain: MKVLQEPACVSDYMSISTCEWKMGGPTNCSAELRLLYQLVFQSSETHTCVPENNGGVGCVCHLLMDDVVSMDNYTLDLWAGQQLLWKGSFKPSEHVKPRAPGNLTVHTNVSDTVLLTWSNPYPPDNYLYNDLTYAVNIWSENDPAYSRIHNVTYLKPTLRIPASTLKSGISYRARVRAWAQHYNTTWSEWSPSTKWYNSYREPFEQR

B1: Construct 4 (mAb413) (antibody, IgG4, V domains shown)
VH: EVQLVESGGGLEQPGGSLRLSCAGSGFTFRDFAMTWVRQAPGKGLEWVSSISGSGGNIYYADSVKGRFTISRDNSKNTLYLQMNSLRAEDTAVYYCAKDRLSKTIRPRYYGLDVWGQGTTVTVSS
VL: DIVMTQSPLSLPVTPGEPASISCTASQSLLYSIGYNYVDWYLQKSGQSPQLLIYLGNNRATGVPDRFSGSGSGTDFTLKISRVEAEDVGFYYCMQALTTPYTFGQGTKLEIK
notes: VH/VL only
B2: Construct 9 (mAb418) (antibody, IgG4, V domains shown)
VH: B1 VH with R30T, K103V, I105V
VL: B1 VL with T24R, A25S, Y35K, T98G, T99S
notes: VH/VL only
B3: Construct 16 (mAb424) (antibody, IgG4, V domains shown)
VH: B1 VH with D31T, F32Y, G56D, K103V
VL: B1 VL with N58K, T61S, A96S, T99S
notes: VH/VL only
B4: Construct 10 (mAb419) (antibody, IgG4, V domains shown)
VH: B1 VH with S54D, G56S, I58T
VL: B1 VL with T24R, A25S, N58K, T61S, T98G, T99S
notes: VH/VL only
B5: Construct 8 (mAb417) (antibody, IgG4, V domains shown)
VH: B1 VH with G56D, K103V, I105V
VL: B1 VL with T24R, A25S, S26T, Y35K, T102A
notes: VH/VL only
B6: Construct 6 (mAb415) (antibody, IgG4, V domains shown)
VH: B1 VH with G56D, K103V, I105V
VL: B1 VL with T24R, A25S, S28G, N58K, T61S, A96S, T98Q
notes: VH/VL only
B7: Construct 12 (mAb421) (antibody, IgG4, V domains shown)
VH: B1 VH
VL: B1 VL with T24R, A25S, L29V, N58K, T61S, A96S, T99S
notes: VH/VL only
B8: Construct 5 (mAb414) (antibody, IgG4, V domains shown)
VH: B1 VH with G56D, L101V, K103I
VL: B1 VL with T24R, A25S, Y35K, N58K, T61S, A96S, T98Q, T102V
notes: VH/VL only
B9: Construct 11 (mAb420) (antibody, IgG4, V domains shown)
VH: B1 VH with S54D, G56S, I58T
VL: B1 VL with T24R, A25S, L29V, N58K, T61S, A96S, T98Q
notes: VH/VL only

What was measured:
hIL-4Rα on cells [1] = target: T1, hIL-4Rα on cells; assay: cell-based or functional assay
hIL-4Rα on cells [2] = target: T1, hIL-4Rα on cells; assay: FACS on HEK293 cells, competitor biotin-hIL-4;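 further: HEK293 cells stably co-expressing hIL-13Rα and hIL-4Rα, stained for 1 h at 4 °C, read-out as mean fluorescence intensity by flow cytometry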
human IL-4Rα = target: T2, human IL-4Rα; assay: SPR, Carterra LSA;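 further: antibodies captured on an anti-human Fc sensor chip, antigen injected at several concentrations, association and dissociation rates fitted with a 1:1 Langmuir model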
cynomolgus monkey IL-4Rα = target: T3, cynomolgus monkey IL-4Rα; assay: SPR, Carterra LSA;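 further: antibodies captured on an anti-human Fc sensor chip, antigen injected at several concentrations, association and dissociation rates fitted with a 1:1 Langmuir model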
hIL-4Rα on cells [3] = target: T1, hIL-4Rα on cells; assay: cell-based or functional assay; remark: listed apart in the source
hIL-4Rα on cells [4] = target: T1, hIL-4Rα on cells; assay: FACS on HEK293 cells, competitor biotin-hIL-13;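 further: stably transduced cells co-expressing both receptor chains, stained cold, with cell-bound signal read as mean fluorescence intensity by flow cytometry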
Protocol: Briefly, HEK293 previously transduced to stably express both hIL-13Rα and hIL-4Rα were cultured and harvested. Cells were seeded at 200,000 cells in 100 uL per well. Cells were washed and the supernatant discarded. […] The cells were stained in this mixture at 4° C. for 1 hour. […] Cells were incubated 4° C. for 1 hour, protected from light. Cells were then washed and the MFI of cells in each well were recorded by FACS using a BD FACSCanto II. Subsequent data were analyzed using GraphPad Prism.

hIL-4Rα on cells [5] = target: T1, hIL-4Rα on cells; assay: cell-based or functional assay; remark: listed apart in the source

Binder | Relative Inhibition of IL-4 induced TF-1 Proliferation IC50 (hIL-4Rα on cells [1]) | Relative Inhibition of IL-13 induced TF-1 Proliferation IC50 (hIL-4Rα on cells [1]) | Relative Blockade of IL-4 Binding IC50 (hIL-4Rα on cells [2]) | KD Relative to Dupilumab (human IL-4Rα) | Kd (human IL-4Rα) | KD Relative to Dupilumab (cynomolgus monkey IL-4Rα) | Kd (cynomolgus monkey IL-4Rα) | Relative Inhibition of IL-4 induced TARC IC50 (hIL-4Rα on cells [3]) | Relative Inhibition of IL-13 induced TARC IC50 (hIL-4Rα on cells [3]) | Relative Blockade of IL-13 Binding IC50 (hIL-4Rα on cells [4]) | Relative Inhibition of IL-4 induced pSTAT6 IC50 (hIL-4Rα on cells [5]) | Relative Inhibition of IL-13 induced pSTAT6 IC50 (hIL-4Rα on cells [5])
B1 | 0.442 relative to dupilumab | 1.11 relative to dupilumab | 1.01 relative to dupilumab | 1.24 | 0.014 nM | 0.2 | 128 nM | 0.266 relative to dupilumab | 0.614 relative to dupilumab | 0.989 relative to dupilumab | 0.493 relative to dupilumab | 0.862 relative to dupilumab
B2 | 0.503 relative to dupilumab | 1.34 relative to dupilumab | 0.757 relative to dupilumab | 0.76 | 0.00862 nM | 0.36 | 228 nM | 0.593 relative to dupilumab | 0.942 relative to dupilumab | 0.911 relative to dupilumab | 0.761 relative to dupilumab | 1.31 relative to dupilumab
B3 | 1.04 relative to dupilumab | 1.44 relative to dupilumab | 0.895 relative to dupilumab | 1.4 | 0.0158 nM | 0.14 | 89.3 nM | 1.63 relative to dupilumab | 1.03 relative to dupilumab | 0.904 relative to dupilumab | 0.825 relative to dupilumab | 1.41 relative to dupilumab
B4 | 0.431 relative to dupilumab | 1.39 relative to dupilumab | 0.992 relative to dupilumab | 1.1 | 0.0125 nM | 0.18 | 114 nM | 0.556 relative to dupilumab | 0.856 relative to dupilumab | 0.922 relative to dupilumab | 0.599 relative to dupilumab | 1.38 relative to dupilumab
B5 | 0.734 relative to dupilumab | 1.47 relative to dupilumab | 1.01 relative to dupilumab | 0.83 | 0.0094 nM | 0.25 | 157 nM | 1.11 relative to dupilumab | 1.05 relative to dupilumab | 0.953 relative to dupilumab | 1.01 relative to dupilumab | 2.1 relative to dupilumab
B6 | 0.92 relative to dupilumab | 2.06 relative to dupilumab | 1.16 relative to dupilumab | 1.02 | 0.0115 nM | 0.09 | 59.5 nM | 0.879 relative to dupilumab | 1.44 relative to dupilumab | 0.99 relative to dupilumab | 0.729 relative to dupilumab | 1.35 relative to dupilumab
B7 | 0.526 relative to dupilumab | 0.87 relative to dupilumab | 1.07 relative to dupilumab | 1.91 | 0.0215 nM | 0.02 | 15.1 nM | 0.38 relative to dupilumab | 0.521 relative to dupilumab | 0.921 relative to dupilumab | 0.457 relative to dupilumab | 0.672 relative to dupilumab
B8 | 0.521 relative to dupilumab | 0.94 relative to dupilumab | 1.01 relative to dupilumab | 2.1 | 0.0238 nM | 0.18 | 116 nM | 0.552 relative to dupilumab | 0.897 relative to dupilumab | 1 relative to dupilumab | 0.78 relative to dupilumab | 1.07 relative to dupilumab
B9 | 0.455 relative to dupilumab | 1.72 relative to dupilumab | 0.977 relative to dupilumab | 1.17 | 0.0132 nM | 0.15 | 92.2 nM | 0.609 relative to dupilumab | 0.877 relative to dupilumab | 0.928 relative to dupilumab | 0.638 relative to dupilumab | 0.924 relative to dupilumab
